Experiments:
[1] = molecular target: T1, human PD1 expressed on a cell surface (human, UniProt Q15116 25-288); assay: flow cytometry on OKT3-activated human T cells, CD4+ cells
T1 construct: whole, on cells; also called hPD1
Procedure: (§1) The following experiment tested whether the selected anti-hPD1 antibodies can bind to native PD1 expressed on the surface of activated T cells. Human PBMCs were pre-activated with OKT3 (an anti-CD3 antibody) at a concentration of 1 μg/ml. After three days, the PBMCs, which were mostly activated T cells at this time, were distributed into a 96 well microtiter plate using 0.1×10⁶ cells/well. […] The antibody bound to CD4⁺ T cells and CD4⁻ T cells (which were predominately CD8⁺ T cells) was detected using anti-hlgG-FITC and an anti-CD4 antibody labeled with allophycocyanin (anti-CD4-APC).
(§2) The samples were analyzed by flow cytometry (FACScalibur, BD), and binding was reported as an MFI. EC₅₀'s for binding were calculated using GraphPad Prism software.

[2] = molecular target: T1, human PD1 expressed on a cell surface; assay: cell-based or functional assay
[3] = molecular target: T1, human PD1 expressed on a cell surface; assay: flow cytometry on OKT3-activated human T cells, CD4- cells
Procedure: as §1, §2

[4] = molecular target: T2, human CTLA4 expressed on Jurkat T cells (human, UniProt P16410 36-223); assay: flow cytometry on Jurkat T cells expressing hCTLA4
T2 construct: whole, on cells; also called hCTLA4; cell surface-expressed hCTLA4
T2 sequence (P16410 36-223): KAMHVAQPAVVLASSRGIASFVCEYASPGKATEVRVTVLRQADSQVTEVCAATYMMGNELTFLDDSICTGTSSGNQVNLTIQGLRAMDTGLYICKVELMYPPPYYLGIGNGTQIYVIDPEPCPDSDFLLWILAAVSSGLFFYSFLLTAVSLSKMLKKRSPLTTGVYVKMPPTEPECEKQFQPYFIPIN
Description: After washing, the surface-bound anti-hCTLA4 antibodies were detected with a polyclonal anti-hlgG (Fc-specific) antibody labeled with fluorescein isothiocyanate (FITC)(anti-hlgG-FITC). Binding of anti-hCTLA4 antibodies were detected by flow cytometric analysis. The results were reported a geometric mean fluorescence intensity (MFI) using FlowJo software (FLOWJO, L.L.C., Ashland, Oreg., USA).

[5] = molecular target: T3, CTLA4-ECD_Fc, soluble hCTLA4 comprising the extracellular domain of hCTLA4 fused to an Fc fragment (human, UniProt P16410 36-161); assay: flow cytometry; inhibition of CTLA4-ECD_Fc binding to Raji cells (hB7-1/hB7-2)
T3 construct: extracellular domain; not shown: Fc fragment
T3 sequence (P16410 36-161): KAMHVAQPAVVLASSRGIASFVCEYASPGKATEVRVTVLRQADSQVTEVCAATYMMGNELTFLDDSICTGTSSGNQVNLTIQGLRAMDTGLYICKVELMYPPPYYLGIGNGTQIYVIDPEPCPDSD
Procedure: In a first assay, inhibition of hCTLA4 binding to hB7-1 and hB7-2 expressed on the surface of Raji cells was assessed. Raji cells, which are human cells, express high levels of hB7-1 and hB7-2. […] After 30 minutes, 1×10⁵ Raji cells were added to each well and incubated for another 30 minutes. […] IC₅₀'s were calculated using GraphPad Prism software (GraphPad, Inc., La Jolla, Calif., USA).

[6] = molecular target: T2, human CTLA4 expressed on Jurkat T cells; assay: cell-based or functional assay

T1 sequence (Q15116 25-288): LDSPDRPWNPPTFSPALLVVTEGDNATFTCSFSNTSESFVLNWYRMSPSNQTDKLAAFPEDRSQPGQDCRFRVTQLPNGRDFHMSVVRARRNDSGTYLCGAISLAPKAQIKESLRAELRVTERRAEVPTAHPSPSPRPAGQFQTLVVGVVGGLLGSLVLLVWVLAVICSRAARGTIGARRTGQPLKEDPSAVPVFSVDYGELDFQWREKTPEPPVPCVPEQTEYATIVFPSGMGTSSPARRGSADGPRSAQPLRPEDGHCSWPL

Binder	EC50 [1] [nM]	IC50, luciferase (RLU), PD1 dual cell reporter assay (Jurkat cells with hPD1 plus CHO-K1 cells with hPDL1) [2] [nM]	EC50 [3] [nM]	EC50 [4] [nM]	IC50 [5] [nM]	IC50, luciferase (RLU), CTLA4 Dual-Cell Reporter Assay (Jurkat cells with hCTLA4 plus Raji cells) [6] [nM]
anti-hPD1 antibody #6 (antibody, human IgG4, V domains shown, also called Anti-hPD1 #6; Anti-PD1 #6) VH: QVQLVQSGAEVKKPGASVKVSCKASGYTFTNYWIHWVRQAPGQGLEWMGEIDPYDSYTNYNQKFKGRVTMTGDTSTSTVYMELSSLTSEDTAVYYCARPGYTYGGMDFWGQGTLVTVSS VL: DIQMTQSPSSLSASVGDRVTITCRSSQSLFNSGNQKNYLAWYQQKPGKPPKLLIYGASTRESGVPARFSGSGSGTDFTLTISSLQPEDVATYYCQNDHYYPYTFGGGTKVEIK	0.667	3.85	0.617	–	–	–
anti-hPD1 antibody #12 (antibody, human IgG4, V domains shown, also called Anti-hPD1 #12) VH: QVQLVQSGAEVKKPGASVKVSCKASGYTFTNYWMHWVRQAPGQGLEWMGEIDPFDSYTNYNQKFKGRVTMTIDTSTNTVYMELSSLRSEDTAVYYCARPGFTYGGMDFWGQGTLVTVSS VL: DIVMTQSPDSLAVSLGERATISCRSSQSLLISGNQKNYLAWYQQKPGQPPKLLIYGASTRDSGVPDRFSGSGSGTDFTLTISSLQAEDVAVYYCQNNHYYPYTFGGGTKVEIK	0.849	–	1.16	–	–	–
anti-hPD1 antibody #8 (antibody, human IgG4, V domains shown, also called Anti-hPD1 #8) VH: QVQLVQSGAEVKKPGASVKVSCKASGYTFTNYWIHWVRQAPGQGLEWMGEIDPYDSYTNYNQKFKGRVTMTIDTSTSTVYMELSSLRSEDTAVYYCARPGNTYGGMDFWGQGTLVTVSS VL: DIVMTQSPDSLAVSLGERATINCKSSQSLFISGNQKNYLAWYQQKPGQPPKLLIYGASTRDSGVPDRFSGSGSGTDFTLTISSLQAEDVAVYYCQNNHYYPYTFGGGTKVEIK	0.647	–	0.904	–	–	–
anti-hPD1 antibody #11 (antibody, human IgG4, V domains shown, also called Anti-hPD1 #11) VH: QVQLVQSGAEVKKPGASVKVSCKASGYTFTSYWIHWVRQAPGQGLEWMGEIDPSDSYTNYNQKFKGRVTMTGDTSTNTVYMELSSLTSEDTAVYYCARPGYTYGGMDFWGQGTLVTVSS VL: DIVMTQSPDSLAVSLGERATISCRSSQSLFISGNQKNYLAWYQQKPGQPPKLLIYGASTRDSGVPDRFSGSGSGTDFTLTISSLQAEDVAVYYCQNNHYYPYTFGGGTKVEIK	33.7	–	24.7	–	–	–
anti-hPD1 antibody #13 (antibody, human IgG4, V domains shown, also called Anti-hPD1 #13) VH: QVQLVQSGAEVKKPGASVKVSCKASGYTFTSYWIHWVRQAPGQGLEWMGEIDPYDSYTNYNQKFKGRVTMTVDKSTNTVYMELSSLTSEDTAVYYCARPGLTYGGMDFWGQGTLVTVSS VL: DIQMTQSPSSLSASVGDRVTITCKSSQSLLNSGNQKNYLAWYQQKPGKPPKLLIYGASTRDSGVPAKFSGSGSGTDFTLTISSLQPEDVATYYCQNDHYYPYTFGGGTKVEIK	0.998	–	1.46	–	–	–
anti-hPD1 antibody #15 (antibody, human IgG4, V domains shown, also called Anti-hPD1 #15) VH: QVQLVQSGAEVKKPGASVKVSCKASGYTFTNYWMHWVRQAPGQGLEWMGEIDPYDSYTNYNQKFKGRVTMTRDTSTNTVYMELSSLRSEDTAVYYCARPGLTYGGMDFWGQGTLVTVSS VL: DIQMTQSPSSLSASVGDRVTITCRSSQSLFNSGNQKNYLAWYQQKPGKPPKLLIYGASTRESGVPYRFSGSGSGTDFTLTISSLQPEDVATYYCQNDHYYPYTFGGGTKVEIK	0.72	–	0.627	–	–	–
anti-hCTLA4 antibody 2F1 (antibody, human IgG1, V domains shown) VH: QVQLVESGGGVVEPGRSLRLSCAASGFTFSSYGMHWVRQAPGKGLEWVAVIWYHRSEKDYADSAKGRFTISRDNSKNTLYLQMNSLRAEDTAVYYCARAGLLGYFDYWGQGTLVTVSS VL: EIVLTQSPGTLSLSPGERATLSCRASQSINSYLAWYQQKPGQAPRPLIYGVSSRATGIPDRFSGSGSGTDFTLTISRLEPEDFAVYYCQQYGMYPFTFGPGTKVDIK	–	–	–	0.276	9.1	20.5
anti-hCTLA4 antibody 1E1 (antibody, human IgG1, V domains shown) VH: QVQLVESGGGVVEPGRSLRLSCAASGFTFSSYGMHWVRQAPGKGLEWVAVIWYNPSEKDYADSAKGRFTISRDNSKNTLYLQMNSLRAEDTAVYYCARAGLLGYFDYWGQGTLVTVSS VL: EIVLTQSPGTLSLSPGERATLSCRASQSISSYLAWYQQKPGQAPRPLIYGVSSRATGIPDRFSGSGSGTDFTLTISRLEPEDFAVYYCQQYGMSPFTFGPGTKVDIK	–	–	–	0.697	6.3	28.2
anti-hCTLA4 antibody 5B2 (antibody, human IgG1, V domains shown) VH: QVQLVESGGGVVEPGRSLRLSCTASGFTFSSYGMHWVRQAPGKGLEWVAVIWYKSSEKDYADSAKGRFTISRDNSKNTLYLQMNSLRAEDTAVYYCARAGLLGYFDYWGQGTLVTVSS VL: EIVLTQSPGTLSLSPGERATLSCRASQSLSSYLAWYQQKPGQAPRLLIYGVSSRATGIPDRFSGSGSGTDFTLTISRLEPEDFAVYYCQQYGMYPFTFGPGTKVDIK	–	–	–	2.93	11.5	> 340
anti-hCTLA4 antibody 6E3 (antibody, human IgG1, V domains shown) VH: QVQLVESGGGVVEPGRSLRLSCAASGFTFSSYGMHWVRQAPGKGLEWVAVIWYKTSEKDYADSAKGRFTISRDNSKNTLYLQMNSLRAEDTAVYYCARAGLLGYFDYWGQGTLVTVSS VL: EIVLTQSPGTLSLSPGERATLSCRASQSVTSYLAWYQQKPGQAPRPLIYGVSSRATGIPDRFSGSGSGTDFTLTISRLEPEDFAVYYCQQYGMSPFTFGPGTKVDIK	–	–	–	0.437	14.1	30
anti-hCTLA4 antibody 3G1 (antibody, human IgG1, V domains shown) VH: QVQLVESGGGVVEPGRSLRLSCTASGFTFSSYGMHWVRQAPGKGLEWVAVIWYKSSEKYYADSAKGRFTISRDNSKNTLYLQMNSLRAEDTAVYYCARGGLLGYFDYWGQGTLVTVSS VL: EIVLTQSPGTLSLSPGERATLSCRASQSINSYLAWYQQKPGQAPRPLIYGVSSRATGIPDRFSGSGSGTDFTLTISRLEPEDFAVYYCQQYGMYPFTFGPGTKVDIK	–	–	–	3.1	3.5	> 340
anti-hCTLA4 antibody 8B4 (antibody, human IgG1, V domains shown) VH: QVQLVESGGGVVEPGRSLRLSCAASGFTFSSYGMHWVRQAPGKGLEWVAVIWYQPSEKDYADSAKGRFTISRDNSKNTLYLQMNSLRAEDTAVYYCARAGFLGYFDYWGQGTLVTVSS VL: EIVLTQSPGTLSLSPGERATLSCRASQSVNSYLAWYQQKPGQAPRPLIYGVSSRATGIPDRFSGSGSGTDFTLTISRLEPEDFAVYYCQQYGMYPFTFGPGTKVDIK	–	–	–	0.384	3.8	19
anti-hCTLA4 antibody 7A4 (antibody, human IgG1, V domains shown) VH: QVQLVESGGGVVEPGRSLRLSCTASGFTFSSYGMHWVRQAPGKGLEWVAVIWYQTSEKDYADSAKGRFTISRDNSKNTLYLQMNSLRAEDTAVYYCARAGLLGYFDYWGQGTLVTVSS VL: EIVLTQSPGTLSLSPGERATLSCRASQSVSSYLAWYQQKPGQAPRPLIYGVSSRATGIPDRFSGSGSGTDFTLTISRLEPEDFAVYYCQQYGMYPFTFGPGTKVDIK	–	–	–	0.217	19.8	10.9
anti-hCTLA4 antibody 9C4 (antibody, human IgG1, V domains shown) VH: QVQLVESGGGVVEPGRSLRLSCAASGFTFSSYGMHWVRQAPGKGLEWVAVIWYKSSEKDYADSAKGRFTISRDNSKNTLYLQMNSLRAEDTAVYYCARAGLLGYFDYWGQGTLVTVSS VL: EIVLTQSPGTLSLSPGERATLSCRASQSLNSYLAWYQQKPGQAPRPLIYGVSSRATGIPDRFSGSGSGTDFTLTISRLEPEDFAVYYCQQYGIYPFTFGPGTKVDIK	–	–	–	0.473	15.7	25.3
anti-hCTLA4 antibody 4H1 (antibody, human IgG1, V domains shown) VH: QVQLVESGGGVVEPGRSLRLSCTASGFTFSSYGMHWVRQAPGKGLEWVAVIWYNPSKKDYADSAKGRFTISRDNSKNTLYLQMNSLRAEDTAVYYCARGGLFGYFDYWGQGTLVTVSS VL: EIVLTQSPGTLSLSPGERATLSCRASQSVSSYLAWYQQKPGQAPRPLIYGVSSRATGIPDRFSGSGSGTDFTLTISRLEPEDFAVYYCQQYGMYPFTFGPGTKVDIK	–	–	–	0.189	8.2	73.8
anti-hCTLA4 antibody 12G4 (antibody, human IgG1, V domains shown) VH: QVQLVESGGGVVEPGRSLRLSCAASGFTFSSYGMHWVRQAPGKGLEWVAVIWYNTSKKDYADSAKGRFTISRDNSKNTLYLQMNSLRAEDTAVYYCARGGLLGYFDYWGQGTLVTVSS VL: EIVLTQSPGTLSLSPGERATLSCRASQSITSYLAWYQQKPGQAPRPLIYGVSSRATGIPDRFSGSGSGTDFTLTISRLEPEDFAVYYCQQYGRYPFTFGPGTKVDIK	–	–	–	0.15	3.5	13.9
